In US9623039B2, “Treatment and prevention of pathological conditions using iduna related techniques and compositions” (VALTED, LLC, priority 2010, dated 2017):

Assays:
[1] = biological target: T1, PARP-1 (Homo sapiens, UniProt P09874); test: Chemiluminescent PARP assay (biotinylated PAR onto histone); format: biochemical; conditions: incorporation of biotinylated PAR onto histone proteins
T1 construct: purchased Trevigen
Procedure: (§1) Because PARP-1 activation plays a prominent role in NMDA excitotoxicity we tested whether PARP-1 activity is directly affected by Iduna. PARP-1 activity was assessed by incorporation of biotinylated PAR onto histone proteins.
Chemiluminescent PARP assay for poly(ADP-ribosyl)ation of Histone H1: Activity of PARP-1 was determined by Trevigen Universal chemiluminescent PARP assay kit (Trevigen, Gaithersburg, Md., USA) in the presence of Iduna or the PARP-1 inhibitor 3-aminobenzamide (3-AB). According to manufacturer's instructions, the incorporation of biotinylated NAD+ (Trevigen) into the poly(ADP-ribose) polymer primed at solid phase immobilized histone H1 (Trevigen) was detected by the chemiluminescent assay, either in the presence or absence of recombinant Iduna. Reactions were performed with 34 μM total biotinylated NAD+ for 60 min at 25° C. in triplicates. Chemiluminescence was measured using a fluorescence multi-well plate reader (SOSTmax, Sunnyvale, Calif.) with an excitation at 544 nm excitation/590 nm emission. In the parallel wells, PARP1 activity was measured after the 3-aminobenzamide treatment at the same concentration of biotinylated NAD+ (34 μM).

[2] = system: PARP-1; test: PARP inhibition assay (32P-NAD incorporation into PAR polymer); format: biochemical; conditions: 32P-NAD incorporation into radiolabeled PAR polymer
Procedure: as §1
PARP Inhibition Assay: To evaluate the ability of Iduna to act as a PARP inhibitor, [^32P]-labeled automodified PARP-1 was synthesized in presence of GST, GST-Iduna or PARG, respectively. To purify the [^32P]-labeled automodified PARP-1, the reaction mixture was incubated with anti-PAR antibody for 4 h at 4° C. and then sequentially incubated with protein-G slurry for 1 h at 4° C. Samples were washed two times with PBS and the amount of [^32P]-labeled automodified PARP-1 was measured by LS 6500 Liquid Scintillation Counting System.

[3] = system: AIF; test: NMDA-induced AIF translocation in cortical neurons; format: cell-based, mouse; conditions: excitotoxic NMDA
From the text: Parthanatos involves the translocation of apoptosis inducing factor (AIF) from the mitochondria to the nucleus following NMDA excitotoxicity. AIF translocation following excitotoxic NMDA treatment was monitored by immunohistochemistry and confocal microscopy (FIG. 50) and by immunoblot analysis of nuclear and mitochondrial subcellular fractions (FIG. 51).

[4] = system: primary cortical neurons; test: Mitochondrial membrane potential (TMRM live imaging); format: cell-based, mouse; conditions: TMRM fluorescence, NMDA 500 μM
Procedure: Mitochondrial Membrane Potential (Δψm): TMRM was used to determine Δψm. Mouse neuronal cultures were loaded with TMRM (100 nM) for 20 min. Thereafter, live-cell imaging was captured using LSM 510 Live Confocal microscope (Carl Zeiss, Germany) for 20 minutes and fluorescence values for TMRM were calculated using LSM 510 confocal software (Carl Zeiss). Following 50-100 seconds base-line stabilization, NMDA (500 μM for 5 min) was directly perfused during image acquisition on the confocal microscopic stage using a peristaltic pump (Gilson). Live images were acquired at an interval of 20 s using a low laser power to avoid excessive bleaching. Due to spectral overlap with GFP, plasma membrane potential could not be determined.

[5] = Intrastriatal NMDA lesion in Iduna transgenic mice; format: in vivo, mouse; conditions: Iduna transgenic mice vs littermate wild type, intrastriatal NMDA 20 nmoles
From the text: To determine whether Iduna is protective in vivo, transgenic mice overexpressing Iduna were generated by knocking in Iduna into the ROSA26 genomic locus resulting in a four-fold expression over wild type littermate mice (FIGS. 58-60). NMDA induced lesions are reduced by approximately 80% in the Iduna transgenic mice compared to littermate wild type control animals following an intrastriatal injection of NMDA (20 nmoles) (FIGS. 61 and 62).
Transgenic Mice: ES cells were targeted and screened as described in Soriano et al. Briefly, the pROSA26PA-iduna plasmid was linearized with KpnI and electroporated into ES cells derived from mouse strain 129SvEv. Twelve of 277 G418-resistant colonies had undergone correct homologous recombination, as determined by Southern blot and PCR of the ROSA26-Iduna allele. Two of these ROSA26-Iduna ES clones were injected into C57BL/6 blastocysts. Resulting chimeras were bred to C57BL/6 mice and offspring were tested for germline transmission. Heterozygous mice for the Rosa26PA-Iduna allele were crossed to Nestin-Cre^(+/+) mice (on C57BL/6 background), which were obtained from the Jackson Laboratory, to obtain ROSA26PA-Iduna^(+/loxP)/Nestin-Cre^(−/+) mice. Nestin-cre/ROSA26PA-Iduna transgenic mice, in which Cre recombinase expression is under the control of the nestin promoter, specifically expresses Iduna in brain. […]

T1 sequence (P09874 whole entry): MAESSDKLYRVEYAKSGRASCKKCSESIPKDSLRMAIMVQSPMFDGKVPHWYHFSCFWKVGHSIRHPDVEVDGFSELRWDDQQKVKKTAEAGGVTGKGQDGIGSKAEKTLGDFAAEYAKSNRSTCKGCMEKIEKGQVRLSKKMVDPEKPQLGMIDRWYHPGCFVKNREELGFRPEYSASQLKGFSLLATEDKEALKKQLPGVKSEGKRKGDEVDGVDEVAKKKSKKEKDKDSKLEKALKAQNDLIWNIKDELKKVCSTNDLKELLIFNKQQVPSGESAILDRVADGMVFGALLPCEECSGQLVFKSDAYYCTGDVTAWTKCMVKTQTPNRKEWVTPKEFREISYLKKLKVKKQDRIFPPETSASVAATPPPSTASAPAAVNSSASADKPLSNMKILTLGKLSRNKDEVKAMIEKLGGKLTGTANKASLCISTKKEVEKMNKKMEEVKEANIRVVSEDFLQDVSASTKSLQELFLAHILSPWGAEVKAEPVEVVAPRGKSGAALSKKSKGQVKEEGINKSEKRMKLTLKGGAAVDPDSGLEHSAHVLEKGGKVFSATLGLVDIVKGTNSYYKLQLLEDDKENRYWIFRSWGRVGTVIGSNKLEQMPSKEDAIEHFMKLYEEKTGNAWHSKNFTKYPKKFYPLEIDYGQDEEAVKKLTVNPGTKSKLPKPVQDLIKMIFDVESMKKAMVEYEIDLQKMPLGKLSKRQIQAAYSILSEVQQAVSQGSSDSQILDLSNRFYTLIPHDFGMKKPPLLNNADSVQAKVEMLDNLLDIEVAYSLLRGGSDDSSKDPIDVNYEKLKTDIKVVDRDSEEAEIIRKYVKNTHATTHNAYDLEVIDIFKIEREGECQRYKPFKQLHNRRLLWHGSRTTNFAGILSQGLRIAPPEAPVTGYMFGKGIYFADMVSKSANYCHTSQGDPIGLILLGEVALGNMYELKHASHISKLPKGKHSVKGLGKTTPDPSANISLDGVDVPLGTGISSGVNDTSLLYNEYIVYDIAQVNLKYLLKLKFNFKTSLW

B1: Iduna: novel NMDA-induced cell survival protein, PAR-dependent E3 ligase; 359 amino acids (protein)
chain: MEMAGCGEIDHSINMLPTNKKANESCSNTAPSLTVPECAICLQTCVHPVSLPCKHVFCYLCVKGASWLGKRCALCRQEIPEDFLDKPTLLSPEELKAASRGNGEYAWYYEGRNGWWQYDERTSRELEDAFSKGKKNTEMLIAGFLYVADLENMVQYRRNEHGRRRKIKRDIIDIPKKGVAGLRLDCDTNTVNLARESSADGADSGSAQTGASVQLAVPSSTRPLTSVDGQLTSPVTPSPDAGISLEDSFAHLQLSGDSIAERSHRGEGEEDHESPSSGRVPDTSVEETESDASSDSEDAPVVVAQHSLTQQRPLVPNGNQTVADQSDRSGTDRSVAGGGTMSVNVRSRRPDGQCTVIEV
- PARP-1 activity [1]: has no effect
- PARP-1 catalytic activity [2]: fails to inhibit PARP-1 catalytic activity
- AIF translocation to the nucleus [3]: reduces the translocation of AIF
- NMDA induced loss of Δψm [4]: prevents NMDA induced loss of Δψm
- reduction of NMDA induced lesions [5]: approximately 80%
